The values that follow come from patent US12397036B2, “Peptide exchange protein” (Cambridge Enterprise Limited, priority 2018, dated 2025).

In series [1] the target is T1, surface MHC class I molecules (HLA-A*68:02) on HeLaM cells (Homo sapiens, UniProt P04439, A269V/D140Y/D185E/E176V/E277Q/E87N/F33Y/G231S/I121R/I166T/I218V/L180W/L300P/L318F/N151K/P208A/P217A/Q86R/R138H/R169H/S129P/T345S/V36M).
T1 construct: HLA-A68 (MHC class I) expressed on HeLa; endogenous in cells; host or cells: HeLaM and derivatives (TAPBPR-KO with or without TAPBPR/tapasin constructs, +Her2, Her2-KO, +PDL1, pD-GFP); in some arms HeLaM-HLA-ABC-KO re-expressing HLA-A*68:02
Put plainly: Binding of exogenous soluble TAPBPR to cells (PeTe-4 staining). To be noted: 100 nM, 15 min, 37° C. As to the method: (g) Dose response curves of IFN-γ treated HeLaM and HeLaM-HLA-ABC^KO cells treated −/+100 nM TAPBPR with increasing concentrations of ETVSK*QSNV for 15 min at 37° C. Line graphs show MFI−/+s.e.m from three independent experiments. […] (h) Histograms of the typical fluorescent peptide binding observed using flow cytometry. (i) Bar graphs showing the MFI of fluorescent peptide binding to HeLaM HLA-ABC^KO+A2−/+s.e.m from two independent experiments with duplicates. ***P≤0.001, ****P≤0.0001, n/s not significant, using unpaired two-tailed t-test.
Following trypsinisation, cells were washed in 1% bovine serum albumin (BSA), dissolved in 1×PBS at 4° C. and then stained for 30 min at 4° C. in 1% BSA containing one of the following antibodies: W6/32, pete4, pasta-1, anti-HLA-A68-reactive mAb, BB7.2 or with an isotype control antibody. After washing the cells to remove excess unbound antibody, the primary antibodies bound to the cells were detected by incubation at 4° C. for 25 min with either goat anti-mouse Alexa-Fluor 647 IgG (Invitrogen Molecular Probes, Thermo Fisher Scientific) or with Alexa-Fluor 647-conjugated streptavidin (Invitrogen Molecular Probes, Thermo Fisher […]

Series [2] concerns the target T2, HLA-A*68:02 (Homo sapiens, UniProt P04439, A269V/D140Y/D185E/E176V/E277Q/E87N/F33Y/G231S/I121R/I166T/I218V/L180W/L300P/L318F/N151K/P208A/P217A/Q86R/R138H/R169H/S129P/T345S/V36M).
T2 construct: HLA-A68 (MHC class I) expressed on HeLa; endogenous in cells; host or cells: HeLaM and derivatives (TAPBPR-KO with or without TAPBPR/tapasin constructs, +Her2, Her2-KO, +PDL1, pD-GFP); in some arms HeLaM-HLA-ABC-KO re-expressing HLA-A*68:02
Put plainly: Fluorescent peptide binding to HeLaM cells treated with exogenous soluble TAPBPR. In kind it is cell-based. As to the method: Target cell lines were seeded at 25,000-30,000 cells/well in 12-well plates and stimulated with IFN-γ. Following the stimulation period, the cells were washed 3 times with 1×PBS and incubated with 300 μL pre-warmed opti-MEM (Thermo Fisher Scientific, UK). In case the peptide binding was done in the presence of recombinant TAPBPR, the cells were then treated with or without recombinant TAPBPR (100 nM for HLA-A*68:02 or 1 μM for HLA-A*02:01). After 15 min, the desired TAMRA-labelled peptide was added to the cells and incubated at 37° C. (15 min for HLA-A*68:02 or 60 min for HLA-A*02:01). In case the peptide binding was facilitated by over-expressed TAPBPR, the labelled peptide was directly added to the cells, without using recombinant TAPBPR. Following the peptide treatment, the cells were washed three times in 1×PBS and harvested. The level of bound peptide/cell was determined by flow cytometry, using the YelFL1 channel (Cytek).
We next asked whether the exogenous TAPBPR bound to surface MHC class I molecules was capable of peptide exchange similarly to the membrane anchored version. Following incubation of cells for 15 min at 37° C. in the presence or absence of 100 nM exogenous TAPBPR, cells were treated with or without 10 nM fluorescent peptide for an additional 15 mins.

In series [3] the target is T3, surface MHC I molecules (Homo sapiens, UniProt P04439, A269V/D140Y/D185E/E176V/E277Q/E87N/F33Y/G231S/I121R/I166T/I218V/L180W/L300P/L318F/N151K/P208A/P217A/Q86R/R138H/R169H/S129P/T345S/V36M).
T3 construct: HLA-A68 (MHC class I) expressed on HeLa; endogenous in cells; host or cells: HeLaM and derivatives (TAPBPR-KO with or without TAPBPR/tapasin constructs, +Her2, Her2-KO, +PDL1, pD-GFP); in some arms HeLaM-HLA-ABC-KO re-expressing HLA-A*68:02
The series can be described thus: TAPBPR remaining on cell surface after peptide binding (PeTe4 staining). In kind it is cell-based. The following applies: 100 nM soluble TAPBPR^WT, then 10 nM peptide 15 min. From the text: Subsequently, the amount of TAPBPR remaining on the cell surface was detected by staining with the TAPBPR specific mAb PeTe4.

For series [4], the target named is T4, Her2 (Homo sapiens, UniProt P04626).
T4 construct: HeLaM cells which naturally express Her2; endogenous in cells; host or cells: HeLaM, HeLaM+Her2 (over-expressing), HeLaM-Her2-KO (negative control)
Put plainly: Binding of recombinant TAPBPR proteins to HeLaM, HeLaM+Her2 and HeLaM^Her2KO cells. To be noted: 100 nM recombinant protein.
Procedure: Histograms show the level of TAPBPR when the two cell lines were incubated with 100 nM protein while bar graphs summarise results using a range of concentrations of protein (0.001-100 nM). […] Each bar represents mean and standard deviation of three independent experiments.
Each bar represents mean and standard deviation of three independent experiments.

For series [5], the system named is EL4 cells. Put plainly: Binding of soluble human TAPBPR to EL4 cells (PeTe-4). More on the design: species or system murine. To be noted: 1 μM, 15 min, 37° C.
Series [6] has as its system EL4 tumour cells. The series can be described thus: OT1 T cell killing of EL4 tumour cells. To be noted: 1 μM TAPBPR, 1 nM SIINFEKL
In kind it is cell-based, murine. As to the method:
Histograms are representative of three independent experiments. (19d) Bar graphs show the MFI of 25-D1.16−/+SD from three independent experiments. (19e) OT1 killing of EL4 cells treated −/+1 μM soluble TAPBPR^WT or TAPBPR^TN5, followed by incubation with 1 nM […] peptide. Error bars−/+s.e.m from triplicate wells. Data is representative of three independent experiments. Note: surface expressed H-2K^b are relatively more peptide receptive compared to human MHC I molecules. […] As OT1 T cells are highly efficient cytotoxic cells, killing 80-100% of targets after 1-4 hours, we decreased the concentration of […] used in these experiments to 1 nM in order to differentiate between TAPBPR-mediated and background peptide binding, otherwise we would not observe an additive effect of soluble TAPBPR on target cell killing.
Although the results above provide indication that soluble TAPBPR could be utilised to decorate target cells with immunogenic peptides and enhance T cell responses against tumours, we next determined whether this could result in enhanced killing of tumour cells. We assessed killing of murine EL4 tumour cells by OT1 T cells in the presence of human TAPBPR and very low concentrations of […] peptide.

In series [7] the target is surface GFP on HeLaM cells (Aequorea victoria, UniProt P42212, F64L/H231L/S65T).
Procedure: (B) Histograms and (C) Bar graphs compare the binding of recombinant soluble TAPBPR (TAPBPR) with recombinant TAPBPR-fused to a nanobody specific for GFP (TAPBPR-GFPNB) to HeLaM cells (left) and HeLaM-pD-GFP cells (right). Histograms show the level of TAPBPR when the two cell lines were incubated with 100 nM protein while bar graphs summarise results using a range of concentrations of protein (0.001-100 nM). […] Each bar represents mean and standard deviation of three independent experiments.

B1: soluble TAPBPR^WT: secreted His-tagged luminal domain of human TAPBPR, lacking transmembrane domain and cytoplasmic tail; SEQ ID NO: 2 (protein)
chain: KPHPAEGQWRAVDVVLDCFLVKDGAHRGALASSEDRARASLVLKQVPVLDDGSLEDFTDFQGGTLAQDDPPIIFEASVDLVQIPQAEALLHADCSGKEVTCEISRYFLQMTETTVKTAAWFMANVQVSGGGPSISLVMKTPRVAKNEVLWHPTLNLPLSPQGTVRTAVEFQVMTQTQSLSFLLGSSASLDCGFSMAPGLDLISVEWRLQHKGRGQLVYSWTAGQGQAVRKGATLEPAQLGMARDASLTLPGLTIQDEGTYICQITTSLYRAQQIIQLNIQASPKVRLSLANEALLPTLICDIAGYYPLDVVVTWTREELGGSPAQVSGASFSSLRQSVAGTYSISSSLTAEPGSAGATYTCQVTHISLEEPLGASTQVVPPERR
modifications: His tag; TAPBPR luminal domain (mature sequence without 21 aa leader sequence)
For the molecule B1, the “binding of exogenous TAPBPR to HeLaM cells” value in series [1] was “clearly detectable on the cell surface”. The “binding of exogenous fluorescent peptides ETVSK*QSNV and YVVPKVAK*V to HeLaM” value in series [2] (100 nM exogenous TAPBPR 15 min, then 10 nM peptide 15 min) is reported as “significant enhancement in the binding of exogenous fluorescent peptides”. For the same molecule, the “exogenous peptide binding over increasing ETVSK*QSNV concentrations” value in series [2] (-/+100 nM TAPBPR, 15 min) is reported as “enhanced exogenous peptide binding to cells over a wide range of peptide concentrations”. Besides, the “dissociation of TAPBPR from cells after peptide binding” value in series [3] is given as “dissociate from cells upon high affinity peptide binding”. Besides, in series [4], the “binding to Her2-deficient HeLaM cells” value is “still capable of binding”. Besides, the “binding to EL4 cells” value in series [5] is on record as “bound to EL4 cells”. In addition, the “OT1 cytotoxic T cell killing of peptide-pulsed EL4 target cells” value in series [6] was “significant enhancement in killing”. Further, in series [7] (10 nM recombinant protein), the “binding to either of the HeLaM cell lines” value is “did not exhibit any binding”. Moreover, in series [7] (100 nM recombinant protein), the “binding to HeLaM cells (lacking GFP)” value is listed as “bound at low levels”.
